The conditions of this data set: Bacillus amyloliquefaciens; pH 6.3; 25 °C; Urea; Fluorescence; MES 1.00 M; NaCl 613 mM; reversible: yes; whole UniProt chain shown.

B1: Ribonuclease wild type, P00648 (protein)
chain: MMKMEGIALKKRLSWISVCLLVLVSAAGMLFSTAAKTETSSHKAHTEAQVINTFDGVADYLQTYHKLPDNYITKSEAQALGWVASKGNLADVAPGKSIGGDIFSNREGKLPGKSGRTWREADINYTSGFRNSDRILYSSDWLIYKTTDHYQTFTKIR
With B1, the “denaturant midpoint (higher = more stable)” value worked out at 4.58 M.

The values above are taken from FireProtDB (doi:10.1016/0022-2836(92)90557-z).
